In the supplement of paper PMC9170038:

What follows are sequences tested on K4 kissing-loop RNA reporter (assay: apparent KD of K4 kissing-loop reporter; higher = weaker reporter binding). Conditions: Eterna round: R107; input ligand: arginine 13.2 mM.
Protocol: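 RNA-MaP round R107: designed RNA switches with theophylline, tryptophan, arginine or FMN aptamers are transcribed on-chip within common flanks. They are titrated with a labelled K4 kissing-loop RNA reporter in RNA-MaP buffer (100 mM Tris pH 7.5, 80 mM KCl, 4 mM MgCl2), without ligand or with the indicated ligand. Median apparent KD per design.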
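Also: bound reporter read as fluorescence of individual clusters on recovered sequencing chips by microscopy, with normalized cluster intensities fitted with a binding model.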

“UGAGGAGAAUAUGAUACCAGCAGAGAGAGAGAGGAAGUAUAGUGAUGUUAUAUGAGAGAAUGCCCUUGGCAGCAUAAGAAGAAGG [SSTheophylB.B]” and “GUACCUUGGAAACAAGGACAGCUCACCGAAGGAGCGCGUGAAAACGCAGGUAGGUCGCGGUAGCGGAGUGAUGUUCCGCGAGGGC [Same State Arginine A GF 20]” are within 1.5-fold of each other in “apparent KD of K4 kissing-loop reporter” value: 121 nM for the first, 99.5 nM for the second.

Going from “GCUCAGGAGUGAUGUUCCAAGUGAUGUUAACGAGGACCGGUACGGCCGCCACUCGAUACGGCCGGACCGUAAGAUAAACUAGAGC [Same State - Tryptophan A (Freestyle 8)]” to “AAUAAUGAUGUUUAGGAUUUCCGAAUGGAAGGAGCGUGCGAAAGCACAGGUAGGUCGCCAGUGAUGUUGGGACCUGAGCAUCAAA [#SwitchBubble 6 #K4Late]”, the “apparent KD of K4 kissing-loop reporter” value rises from 216 nM to 514 nM (2.4-fold).

“GAUUGAGGAAACUCGAUCUUAUAUCCUAGGCAGGAUAUGCGGAAACGCAGAAGGGCCACCUAGCAGUGAUGUUGCAAGCGAAAGC [Ex FMN A 5]” and “UUCUACGUGCAAGGAUAUCCAUACGCUGCCCAGCGGGUAGCGAUAUAUGGAGUGAUGUUCCAUGUAGGAGAAGGUGCACUGUCCU [Atrea]” are within 1.5-fold of each other in “apparent KD of K4 kissing-loop reporter” value: 425 nM for the first, 386 nM for the second.

Compared with “UUAGAGAUCUCAGGAUAUCAGUGAUGUUGGUGUGAAGAUCUGAGAUAGAAUUCUAUCUCAGAUCAAUGAGAAGGGAGAUCUCAUU [AK3.1 Exc FMN B]”, “CGCAGUGAUGUUGCUAUUAUUCUUGAUUAACGAGGACCGGUACGGCCGCCACUCGAUUUCUAUCUUAUUUUGUGUUAUGUUGAUU [JR_ExcTryptoA_Sub008]” is 2.2-fold higher in “apparent KD of K4 kissing-loop reporter” value: 162 nM for the first, 359 nM for the second.

“GUAGCCCUAUGUGAUACCAGACGGUAUAAAAUCCUGGCGGCCAGUGAUGUUGGCCAUCGCGUCCCUUGGCAGCACCAAGGCUGUA [theeternabot_sameState_KL_Theo_B_18]” and “CAACUACCCGGAAGGAGCGCGGGUGUAAAUCAAAGGGCUUGAGUGAUGUUCAAGCGGAACCCGCAGGUAGGUCGCCGGGAAGCCC [Quaneson]” are within 1.5-fold of each other in “apparent KD of K4 kissing-loop reporter” value: 143 nM for the first, 114 nM for the second.

Going from “UCCUGUUGUCAGCCACGAAAGUGGAUUGAUACCAGAGUCGAAAGACUCCCUUGGCAGCGAGUGAUGUUCGCAGCAGGUAAAUAAA [MatMod 4 - Jieux - Exclusion - Theophylline A]” to “GCGGCCCAGCCGGAUACCAGUGACCCGCUGGGAACCGCGGGCCCAGAGUGAUGUUCGGGACACCCUUGGCAGCCGCCUGGGUCGC [#2 Same State - Theophylline B Attempt #18 (HarryS)]”, the “apparent KD of K4 kissing-loop reporter” value rises from 157 nM to 274 nM (1.7-fold).

Going from “AAUAUAGUGAUGUUAUAUAAGAAGGAGUUACGAGGACCGGUACGGCCGCCACUCGAAACGAGUGAGGGUUUGGGAGAUUGGGCCC [SSTryptA.J]” to “UGACUACAAAGGAAAUAAUCCUAGUGAUGUUAGGAUAUGCUGAUAAGCAGAAGGAACUGAGAUCGAAAGAUCUCAAAUGUAGUCU [FmnAX 26 Mat Inspired #SwitchBubble #StaticStem #K4Early]”, the “apparent KD of K4 kissing-loop reporter” value falls from 310 nM to 90.1 nM (3.4-fold).

Compared with “GCGAAGUGAUGUUUCGCCAAUAUUUGAUGAAAGGAUAUCUACUUGAAGAGAAGGUUCAUAUGACUCAAUACCUGACUUGGACCCG [theeternabot_sameState_KL_FMN_A_37]”, “GGUUAAUAGGAGGAUACCAGUACGAAUAAAGUACAUUAAUAGUAGAGUGAUGUUCUAAAGUACCCUUGGCAGCUUAGAGUUAGUU [#19 K4 Theophylline B Exclusion]” is 2.6-fold higher in “apparent KD of K4 kissing-loop reporter” value: 84.2 nM for the first, 216 nM for the second.

First: CCGCGGCAAGCUCCGGAACCCAUAUUCGAUACCAGCCUUAUCACGGGCCCUUGGCAGCGAGCGUUAGUGAUGUUAGCGGCAUGGU [theeternabot_sameState_KL_Theo_A_27]
Second: AAGCAGUCAGAGAGUGAUGUUCUCAAAUAACGAGGACCGGUACGGCCGCCACUCGAAGACUGCAAGUCCUACGAAAAGUAGGACA [Omei inspired 9]
The “apparent KD of K4 kissing-loop reporter” value of the first is 4.3-fold higher: 256 nM for the first, 59.5 nM for the second.

Going from “CUUGUACAAGUGAUGUUUGUUAUAUCCGAAGGAGCGUCGUACUAGACAGGUAGGUCGCGGAUGAAGAUAGUUUUUUUAAUAUCAU [JR_Nu_SSArginiA_Sub028]” to “GGUCGAGUGAUGUUCGAUGUUAUGCAUUCAGAGGAUAUAGGAUUGGCUAGAAGGCUGAAUCGAUCUUCGAGUGAUGUUCGAGGAU [Same State FMN A GF 8]”, the “apparent KD of K4 kissing-loop reporter” value falls from 474 nM to 112 nM (4.2-fold).

“AACUGUCGAGGACAACAUUACUGAGGUGAUACCAGCAUCGAAAGAUGCCCUUGGCAGCACCAACUUGCAGUGAUGUUGCAAGUAA [BrourdMod 9 - Jieux - Exclusion - Theophylline A]” and “ACCUUUUUUGCCAGUGAUGUUGGACAGGAAGGAGCGGGCAUAAGCCCAGGUAGGUCGCCUGUCAACUUUCUUAUAGCCCUAAGGU [KL-XArg-A17]” are within 1.5-fold of each other in “apparent KD of K4 kissing-loop reporter” value: 324 nM for the first, 270 nM for the second.

Going from “GUAAGACCGGGACUCCAGUGAUGUUGGAGGCAGGAUAUCCAGUCGAGGAGAAGGGCCAGGGAUAUCGAGCUGCUCGGUUUGUAGU [Argeis]” to “AAGUGAUGUUGUAGUGAUGUUGUGAUGUUGCAGGAUAUAUAGUGAUGUAGAAGGGUAUGUGCAGUUUUAUUUUUUGAGUGUUGAU [ttytmullin]”, the “apparent KD of K4 kissing-loop reporter” value falls from 69.5 nM to 31 nM (2.2-fold).

Going from “UGACAUUGCUCAGAUACCAGACCUGAGGAUCACCCAGGUGCCAAAACGUACUAAAUAAAGGUCCCUUGGCAGCUGAGCAAUGUCU [TheoBX 13]” to “AGAUUCGACACGGCCGCCACUUGUGGUGGAUUAUCCUAUGUCGAACAUGAGUGAUGUUCAUGUACAAGGACCGGGUGUUGAGUCU [KL-XTryp-B6 #analogue]”, the “apparent KD of K4 kissing-loop reporter” value rises from 38.9 nM to 373 nM (9.6-fold).

Going from “UUUACCAGUGAUGUUGGCCUAGUAUUUACACGAGGACCGGUACGGCCGCCACUCGCAUUAUCGGACUUUGAUAAGCAUAUUAUAU [theeternabot_sameState_KL_Trp_A_28]” to “GCAAAACAAACGUAGAGUGGAACACAGAGACGAGGACCGGUACGGCCGCCACUCGACGAGGUUUUCAGUGAUGUUGAAAAUUUAG [Exclusion Tryptophan A GF2]”, the “apparent KD of K4 kissing-loop reporter” value falls from 283 nM to 162 nM (1.7-fold).

“GCGCGUCAUGUUGGCGGGAACUAAGCCGAUACCAGCCGGGAAACCGGCCCUUGGCAGCGGCGCGCCGGAGUGAUGUUCCGACAGA [#2 Exclusion - Theophylline A Attempt #1 (HarryS)]” and “UGAUAGGACAGAAGGAGCGGUAGUGAUGUUGCCAAAAGGUUAAGGUGUCAAAAGACACCCUACCAGGUAGGUCGCUGUCCUAUCU” are within 1.5-fold of each other in “apparent KD of K4 kissing-loop reporter” value: 246 nM for the first, 207 nM for the second.

Compared with “GUUACGCAUGGAAGGAGCGCACUCCGGUUGAUCAACACAGUGAUGUUGUGGUUCAUUCGAAUGCAGGUAGGUCGCCAUGUGUAAC [Ex Arginine B K4 16]”, “AUUUAUUACAGAAGGAGCGUGUAUUUAUAAUCAUUUAUCUUAGCGAGUGAUGUUCGCUUUACACAGGUAGGUCGCUGUUUAUUUA [JR_Nu_ExcArginiB_Sub027]” is 5.7-fold lower in “apparent KD of K4 kissing-loop reporter” value: 724 nM for the first, 128 nM for the second.

Same assay, conditions: Eterna round: R107; input ligand: none

First: GGCAGUGAUGUUGCCAGUGGCAGAUUAGAAGGAGCGUGGUGAGACACAGGUAGGUCGCUAAUUGAAAUUGCUGUCACUAAAAUGC [#6]
Second: GUGAGGAGUGGUGUUGAUUAGGGAGCGGAAGGAGCGCCGAGGAAGGCAGGUAGGUCGCCGGAUUAUAGUGAUGUUAUGAAGAGGG [ExArg.K]
The “apparent KD of K4 kissing-loop reporter” value of the first is 1.8-fold lower: 300 nM for the first, 551 nM for the second.

“UGACUUGCCUGAGGAUAUCUAGGAUAUCCAUAAAAGAAAAUAAUAAUCCAGUGAUGUUGGAGAAGGAGAGAAGGCAGGUAAGUCU [KL-XFMN-B17 #DoubleAptamer #SwitchBubble]” and “CAGAACAUAUAUAGAAACUAUAUAUGAGAUACCAGUCAAAUUAAAGACCCUUGGCAGCUCAGGCGAGUGAUGUUCGCAGGCUAAC [Astros-Gfrank-modulation#2]” are within 1.5-fold of each other in “apparent KD of K4 kissing-loop reporter” value: 119 nM for the first, 102 nM for the second.

Going from “UGUAUGGACUGAAGGAGCGCUAGGUAUGUGAGUGAUGUUCAUAUAAAUGUAUAAAGGGUUUGGCAGGUAGGUCGCAGUCCAUACU [KL-SSArg B6]” to “AUCAGCCUCAGAAGGAGCGUGAGUUUUAAGAGGCUGGAGUGAUGUUCCAGACAUAACGACUCACAGGUAGGUCGCUGAGACUAGU [Arg B SS t1]”, the “apparent KD of K4 kissing-loop reporter” value falls from 227 nM to 121 nM (1.9-fold).

Going from “GGCCCGGGCGCGGCCGCCACUCCCUCGUACCGAAAGGUAUGAUACCGAGUGAUGUUCGGUUGGAGGAGGACCGGGCGCCCGGGCC [#2 Exclusion - Tryptophan B Attempt #4 (HarryS)]” to “GCCGUACGCAUGGAUACCAGUCUUUCACGACUGGGCAUGGAGUGAUGUUUCGUGAUGCUAGACCCUUGGCAGCCAUGCGUACGGC”, the “apparent KD of K4 kissing-loop reporter” value rises from 105 nM to 175 nM (1.7-fold).

Going from “UUUUUAUAAGAGGAUACCAGUACAAAUAAAGUACAUUAAUAGUAGAGUGAUGUUCUAAAGUACCCUUGGCAGCUUAGAUUAAGUU [ExTheophylB.D]” to “AGGCACGAGCAAGGAUAUUGAGUAGAGUGAUGUUCUGCCUAAGUUGGCUCGUAAGAGCCUUCUUAGCGAGAAGGUGCUCGUGCCU [#2 Same State - FMN A Attempt #27 (HarryS)]”, the “apparent KD of K4 kissing-loop reporter” value rises from 172 nM to 824 nM (4.8-fold).

“UGAGGAGAAUAUGAUACCAGCAGAGAGAGAGAGGAAGUAUAGUGAUGUUAUAUGAGAGAAUGCCCUUGGCAGCAUAAGAAGAAGG [SSTheophylB.B]” and “GUACCUUGGAAACAAGGACAGCUCACCGAAGGAGCGCGUGAAAACGCAGGUAGGUCGCGGUAGCGGAGUGAUGUUCCGCGAGGGC [Same State Arginine A GF 20]” are within 1.5-fold of each other in “apparent KD of K4 kissing-loop reporter” value: 142 nM for the first, 100 nM for the second.

First: GCUCAGGAGUGAUGUUCCAAGUGAUGUUAACGAGGACCGGUACGGCCGCCACUCGAUACGGCCGGACCGUAAGAUAAACUAGAGC [Same State - Tryptophan A (Freestyle 8)]
Second: AAUAAUGAUGUUUAGGAUUUCCGAAUGGAAGGAGCGUGCGAAAGCACAGGUAGGUCGCCAGUGAUGUUGGGACCUGAGCAUCAAA [#SwitchBubble 6 #K4Late]
The “apparent KD of K4 kissing-loop reporter” value of the first is 3.7-fold lower: 188 nM for the first, 703 nM for the second.

“GAUUGAGGAAACUCGAUCUUAUAUCCUAGGCAGGAUAUGCGGAAACGCAGAAGGGCCACCUAGCAGUGAUGUUGCAAGCGAAAGC [Ex FMN A 5]” and “UUCUACGUGCAAGGAUAUCCAUACGCUGCCCAGCGGGUAGCGAUAUAUGGAGUGAUGUUCCAUGUAGGAGAAGGUGCACUGUCCU [Atrea]” are within 1.5-fold of each other in “apparent KD of K4 kissing-loop reporter” value: 379 nM for the first, 457 nM for the second.

Compared with “UUAGAGAUCUCAGGAUAUCAGUGAUGUUGGUGUGAAGAUCUGAGAUAGAAUUCUAUCUCAGAUCAAUGAGAAGGGAGAUCUCAUU [AK3.1 Exc FMN B]”, “CGCAGUGAUGUUGCUAUUAUUCUUGAUUAACGAGGACCGGUACGGCCGCCACUCGAUUUCUAUCUUAUUUUGUGUUAUGUUGAUU [JR_ExcTryptoA_Sub008]” is 1.6-fold higher in “apparent KD of K4 kissing-loop reporter” value: 209 nM for the first, 333 nM for the second.

“GUAGCCCUAUGUGAUACCAGACGGUAUAAAAUCCUGGCGGCCAGUGAUGUUGGCCAUCGCGUCCCUUGGCAGCACCAAGGCUGUA [theeternabot_sameState_KL_Theo_B_18]” and “CAACUACCCGGAAGGAGCGCGGGUGUAAAUCAAAGGGCUUGAGUGAUGUUCAAGCGGAACCCGCAGGUAGGUCGCCGGGAAGCCC [Quaneson]” are within 1.5-fold of each other in “apparent KD of K4 kissing-loop reporter” value: 142 nM for the first, 119 nM for the second.

With “UCCUGUUGUCAGCCACGAAAGUGGAUUGAUACCAGAGUCGAAAGACUCCCUUGGCAGCGAGUGAUGUUCGCAGCAGGUAAAUAAA [MatMod 4 - Jieux - Exclusion - Theophylline A]” the “apparent KD of K4 kissing-loop reporter” value was 209 nM.
